Assay: yeast display, Sf9 membrane polyspecificity reagent, FACS + sequencing; frameworks hold sequencing errors
Summary of the method: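 Galactose induction of a Saccharomyces cerevisiae BJ5465 synthetic nanobody display library ran 36–48 hours. The cells were then stained for 1 hour at 4 °C with 10% biotinylated, detergent-solubilized Sf9 membrane reagent, pulled down on streptavidin microbeads and FACS-sorted into low and high (top ~1%) gates on expression and reagent-binding fluorescence. Labels for polyreactivity follow the gate of origin.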

Row | Sequence | polyreactivity (PSR sort gate)
1 | QDQLVESGGGLVQAGGSLRLSCAASGSIFYYYAMGWYRQAPGKERELVASISRSGGSTFYADSVKGRFTISRDNAKNSVYLQMNRLKPEDTAVSYCATGWYYSPYNYWGQGTQVTVSS | high polyreactivity
2 | QVQLVESGGGLVQAGGSLRLSCAASGFIFTGNVMGWYRQAPGKERELVAAIRWSGGRTYYADSVKGRFTISRDNAKNTVYLQMNSLKPEDTAVYYCNALGRVQGYKPGGLDYWGQGTQVTVSS | high polyreactivity
3 | QVQLVESGGGLVQAGGSLRLSCAASGSTFVIYAMGWYRQAPGKERELVASIRGRTGSTYYADSVKGRFTISRDNAKNTVYLQMNSLKPEDTAVYYCAATPGYKSKMDYWGQGTQVTVSS | high polyreactivity
4 | QVQLVESGGGLVQAGGSLRLSCAASGRTFRIYAMGWYRQAPGKERELVATISGRGGNTYYADSVKGRFTISRDNAKNTVYLQMNSLKPEDTAVDYCAADDATAYRVDGFKYDYWGQGTLVTVSS | high polyreactivity
5 | QVQLVESGGGLVQAGGSLRLSCAASGRTFYAYAMGLYRQAPGKERELVASIRWSSGSTNYADSVKRRFTISRDYAKITVYLQMNILKAEDTAVYYCAARYYYYGGHRLYWGQGTQLTVSS | high polyreactivity
6 | QVQLQESGGGLVQAGGSLRLSCAASGSISADGAMGWYRQAPGKEREFAASVNWGTNTNYADSVKGRFTISRDNAKNTLYLQMNRLKPEDTAVYYCAVLPDWETRHDYWGHGTQVTVSS | low polyreactivity
7 | QVQHVESGGGLVQAGGSLRLSCAASGSTFWYYDMGWYRQAPGKEMELVAAISGSGGRTYYADSVKGRFTISRDNAKNTVYLQMNSLKPEDTAVYYCAADDYWSADFKYNYWGQGTQVTVSS | low polyreactivity
8 | QVQLVESGGGLVQEGGSLRLSCAASGSTISSYAMGWYRQAPGKERELVAAITSGGSTYYADSVKGRFTFSRDNAKNTVYLQMNSLKPDDTAVYYCDLGSTTMDYWGQGTQVTVSS | low polyreactivity
9 | QVQLVESGGGLVQAGGSLRLSCAASGSIFLPYAMGWYRQAPGKERELVAAITWGGDSTYADSVKGRFTISRDNAKNTVYLQMNSLKPEDTAVYYCAAGAGFESDYWGQGTQVTVSS | low polyreactivity
10 | QVQLVESGGGLVQAGGSLRLSCAASGNTFTWYTMGWYRQAPGKERELVAVITSDGSTYYADSVKGRFTISRDNAKNTVYLQMNSLKPEDTAGYYCNALSADWYPEEDFWGQGTQVTVSS | low polyreactivity
11 | QVQLVESGGGLVQAGGTLRLSCAASGRIFSKNAMGWYRQAPGKERELVARIRWTGGITYYADSVKGRFTISRDNAKNTVYLQMNSLKPEDTAVYYCAAGSYAGFAVIGYYYWGQGTQVTVSS | low polyreactivity
12 | QVQLVESGGGLVQAGGSLRLSCAASGLTFAKNAMGWYRQAPGKERELVAAITTGGSTYYADSVKGRFTISRDNAKNTVYLQMNSLKPEDTAVYYCAAQILVRHIPYYYWGQGTQVTVSS | high polyreactivity
13 | QVQLVESGGGLVQAGGSLRLSCAASGSTFGPYAMGWYRQAPGKERELVADITVSDGSTYYADSVKGRFTISRDNAKNTVYLQMNSLKPEDTAVYYCAAEIYYSFGYWGQGTQVTVSS | low polyreactivity
14 | QVQLVESGGGLVQAGGSLRLSCADSGSTFYHNAMGWYRQAPGKERELDDAIRFSGTSTYYADSVKGRFTISRDNAKNTVYLQMNSLKPEDTAVYYCAAEVSSPAQREFDYWGQGTQVTVSS | low polyreactivity
15 | QVQLVESGGGLVQAGGRLRLSCAASGSTLDTYAMGWYRQAPGKERELVAGITWSGGSTYYADSVKGRFTISRDNAKNTVYLQMNSLKPEDTAVYYCAAYSPYGPRYDYWGQGTQVTVSS | low polyreactivity
16 | QVQLVESGGGLVQAGGSLRLSCAASGSTFVSNAMGWYSQAPGKERELVAAISSSDDSTYYADSVKGRFTLSRDKAKNTVYLQMISLKPEDTAVYYCAAESDSDQHDGDYWGQGTQVTVSS | low polyreactivity
17 | QGHLVESGGGLFQAGGSLRLSCAASGSILSYYALGRYRQAPGKEMEMVAVINSGGRTNYADAVKGRFTISRDNAKYTVYLQMNSLKTEDTAVYDCAAQGYFVDRAGRYYRVDYRGQGTQVTVSS | high polyreactivity
18 | QVQLVESGGGLVQAGGSLRLSCAASGRIFVKYAMGWYRQEPGKERELVAAIRWSVGSTYYADSVKGRFTISRDNAKNTVYLLMNSLKPEDTAVYYCAAQPVRKLYWGQGTQVTVSS | high polyreactivity
19 | QVQLVESGGGIVQAGGRLRLSCAASGFPSTLMLWDGIDRRLGKKGSWLPIISYNGGSTYYADSVKGRFTISRDNANNTVYLQMNSLKPVDTAVYYCYTAVGEYESDYWGQGTQVTVSS | low polyreactivity
20 | QVQLVESGGGLVQAGGSLRLICAASGSTFKRYAMGWYRPAPGNERELVAAISSTGGSTFYADSVKGRFTISRDIAKYTVYLQMNSLKREDTAVYYCKKYRATNSARDYWGQGTQVTVSS | high polyreactivity
21 | QVQLVESGGGLVQAGGSLRLSCASSGFSFDYYVMGWYRQAPGKEMELVASNRSRGASTHYADSVKGRFTISRDNAKNTVYLQMNRLKTEDTAVYYCAKGGGYRRAARSFGGGDYWGQGTHVTVSS | low polyreactivity

Row | Sequence | polyreactivity (PSR sort gate)
22 | QVQLVESGGRLVQAGGSLRLSCAASGFTFRRYAMGWYRQAPGKERELVAVITTAGSTNYADSVKGRFTISRDNAKNTVYLQMNTLKPEDTAVYYCATDNGTRKRRYDYWGQGTQVTVSS | low polyreactivity
23 | QVQLQDSGGGLVQAGGSLRLSCAASGTISYRYRMGWYRQAPRKELELVAGIRFGSITYYADSVKGRFTISRDNAKNTVYLQMNSLKPEDIAVYYCAVYQKSYRFFPYWGQGTQVTVSS | high polyreactivity
24 | QVQLVESGGGLVQAGGSLRLSCAASGSIFRFNTMGWYRQAPGKERELVAAITSGDGTYYADSVKGRFTISRDNAKNTVYLQMNSLKPEDTAVYYCAATRTYQLYRWAPRYYYWGQGTQVTVSS | high polyreactivity
25 | QVQLVESGGGLVQAGGSLRVSCAASGSIFYTYVMGWYREAPGKERELVAAISGTGGRTYYADSVKGRFTISRDNAKNTVYLQMNSLKPEDTAVYYCAALYNRVNGHYYWGQGTQVTVSS | high polyreactivity
26 | QVQLVESGGGLVQAGGSLRLSCAASGRTFRYYVMGWYRQAPGKERELVAAINRRGDNTYYADSVKGRLTISRDNAKNTVYLQMNSLKPEDTAVYYCAARREPYQYNQYYSWGQGTQVTVSS | high polyreactivity
27 | QVQLVESGGGLVQAGGSLRLSCAASGRIFTSYTMGWYRQAPGKERELVAAIDWSGGTTYYADSVKGRFTISRDNAKNTVYLQMNSLKPEDTAVYYCAALYVKVGYYTYEYWGQGTQVTVSS | low polyreactivity
28 | HVQLQESGGGLVQACGSQRLSCAASGSISEGQDMGRYRLAPGKEREFVAGIAPGATTYYADSVKGRFTISRDNAKITVYLQMNSLIPEDNAVYYCAARSVTETDHDYWGQGTQVTVSS | low polyreactivity
29 | QVQLVESGGGLVQAGGSLRLSCAASGRIFINNAMGWYRQAPGKERELVAAINTGGGTNYADSVKGRFTISRDNAKNTVYLEMNSLKPEDSAVYYCAARTYDFRARHKDGYWGQGTQVTVSS | high polyreactivity
30 | QVQLVESGGGLVQAGGSLRLSCAASGRIFGVYAMGWYRQAPGKERELFADISWSGSGTYADSVKGRFTISRDNAKNTVYLQMNSLKPEDTAVYYCNVDPAQIHAGYVGYDYWGQGTQVTVSS | low polyreactivity
31 | QVQLVETGGGLVQAGGSLRLSCAASGLIFYSYTMGWYRQAPGKERELVAVISRSGTSTYYADSVKGRFTISRDNAKNTVYLQMNSLKPEDTAVYYCAARAYVSHYGVSNFGYYYWGQGTQVTVSS | high polyreactivity
32 | QVQLVESGGGLVQAGGSLRLSCAASGRTFYYYVMGWYRQAPGKEREFVAAITSGGSTNYADSVKGRFTISRDNAKNTVYLQMNSLKPEDTAVYYCAAGKYTIYGYWTPYDYWGQGTQVTVSS | low polyreactivity
33 | QVQLVESGGGLVQAGGSHRLSCAASGSIFYKNAMGWYRQAPGKERELVAAITKRGGTTYYADSVKGRFTISRDNAKNTVYLQMNSLKPEDTAVYYCAKYLGPASIVRYEYWGQGTQVTVSS | high polyreactivity
34 | QVQLVESGGGLVQAGGSLRLSCAASGRTFYVNTMRWYRQAPGKEREFVARITRGGSTYYADSVKGRFTISRDNAMNTVYLEMNSLKPEDTAFYYCGTDHFPVYSTHVIYEFDYWGQGTQVTVSS | low polyreactivity
35 | QVQLVESVGGLVQAGGSLRLICAASGSTFNWYAMGWYRQAPGKERDLVADITWRDGSTYYADSVKGRFTISRDNAKNTVYLQMNSLKPDDPAVYYCADDYTYWGIFFGYWGQGTQVTVSS | high polyreactivity
36 | QVQLVESGGGLVQAGGSLRLSCAASGFIFANYAMGWYRQAPGKERELVAVISQRGGRTYYADSVKGRFTISRDNAKNTVYLQMNSLKPEDTAVYYCNAVTGEWGQGTQVTVSS | low polyreactivity
37 | QVQLVESGGGLVQAGGSLRLSCAASGFTFWDYTMGWYRQAPGKERELVAAISSSGGGTYYADSVKGRFTISRDNAKNTVYLQMNSLKPVDTAVYYCAASVWYYPMDYWGQGTQVTVSS | low polyreactivity
38 | QVQLVESGGGIVQAGGSLRLSCAATGSIFGNYAMGWYRQAPGKERELVAAITSSGGTYYADSVKGRFTISRDNAKNTVYLQMNSLKPEDTAVYYCAARYYSYRHQSVKYGYWGQGTQVTVSS | high polyreactivity
39 | QVQLVESGGGLVQAGGSLRLSCAASGLTFSAYAMGWYRQAPGKERELVAAITSSGGSTYADSVKGRFTISRDNAKNTVYLQMNSLKPEDTAVYYCAARVVRYGYKYYYWGQGTQVTVSS | low polyreactivity
40 | QVQLVESGGGLVQAGGSLRLSCAASGSIFPRNAMGWYRQAPGKERELVARINSGGTTKYADSVKGRFTISRDNAKNTVYLQMNSLKPEDTAVYYCNADTYILDPLRKSYGYDYWGQGTQVTVSS | low polyreactivity
41 | QVQLVESGGGLVQAGGSLRLTCAASGSTFDINAMGWYRQAPGKERELVASITFSGGSTYYADSVKGRFTISRDNAKNTVYLQMNSLKPEDTAVYYCAADSSGEYPRWLRYDYWGQGTQVTVSS | low polyreactivity

Reference: the nanobody polyreactivity screen of Harvey et al. (2022)
